# Experimental data reported in US20220267427A1 (SYSMEX, published 2022).
# Where no end group is shown, it is not given here. The star is where a group is joined. Biotin = O=C1N[C@H]2[C@H](CS[C@H]2CCCCC(=O)*)N1
# T1: rfCK18 (239-396) (human, UniProt P05783 239-396)
# T1 construct: Bought (Cloud-Clone-Corp.); captured through an anti-GST or penta HIS antibody, the tag is not described
# T1 sequence: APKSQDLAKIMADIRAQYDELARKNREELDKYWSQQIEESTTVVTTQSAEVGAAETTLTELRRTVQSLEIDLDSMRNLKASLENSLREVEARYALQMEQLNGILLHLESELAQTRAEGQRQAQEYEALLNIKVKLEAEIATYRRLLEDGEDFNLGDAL
# T2: Peptide 3 (human)
# T2 peptide: Biotin-APKSQDLAKIMADIRAQY
# T3: Peptide 11 (human)
# T3 peptide: Biotin-AEVGAAETTLTELRRTVQ
# T4: Peptide 7 (human)
# T4 peptide: Biotin-NREELDKYWSQQIEESTT
# T5: Peptide 10 (human)
# T5 peptide: Biotin-VVTTQSAEVGAAETTLTE
# T6: Peptide 13 (human)
# T6 peptide: Biotin-LRRTVQSLEIDLDSMRNL
# T7: Peptide 15 (human)
# T7 peptide: Biotin-DSMRNLKASLENSLREVE
# T8: Peptide 18 (human)
# T8 peptide: Biotin-ARYALQMEQLNGILLHLE
# T9: Peptide 14 (human)
# T9 peptide: Biotin-SLEIDLDSMRNLKASLEN
# T10: Peptide 16 (human)
# T10 peptide: Biotin-KASLENSLREVEARYALQ
# T11: Peptide 12 (human)
# T11 peptide: Biotin-ETTLTELRRTVQSLEIDL
# T12: Peptide 17 (human)
# T12 peptide: Biotin-SLREVEARYALQMEQLNG
# T13: Peptide 5 (human)
# T13 peptide: Biotin-DIRAQYDELARKNREELD
# T14: Peptide 27 (human)
# T14 peptide: Biotin-LLEDGEDFNLGDALD
# T15: Peptide 25 (human)
# T15 peptide: Biotin-VKLEAEIATYRRLLEDGE
# T16: Peptide 26 (human)
# T16 peptide: Biotin-IATYRRLLEDGEDFNLGD
# Legend:
# rfCK18 (239-396) = molecular target: T1, rfCK18 (239-396); assay: solid phase ELISA; antigen (0.3 ug/mL) captured by anti-GST or penta HIS antibody on plate, antibody 5 to 10 ng/mL
# Method: (1) An ANTI GST antibody or a penta HIS antibody was added to an ELISA plat at 2.5 μg/mL and 50 μL/well, and the plate was allowed to stand at 4° C. overnight to immobilize the antibody. Thereafter, the plate was washed three times with PBST, and Buffer I′ (10 mM NaH₂PO₄.2H₂O, 149.7 mM NaCl, 2.5 mM EDTA 2Na, 0.10% BSA, pH 7.0) was added thereto at 200 μL/well to prepare a plate stored at 4° C. overnight. […] (3) The plate was washed three times with PBST, and 50 μL each of each antigen diluent was added thereto, followed by shaking for 45 minutes. […] (6) The plate was washed three times with PBST, and 15000-fold diluted Peroxidase-conjugated Affinipure F(ab)′2 Fragment Goat Anti-Mouse IgG (H+L) (Jackson) was added thereto at 50 μL/well, followed by shaking for 45 minutes. (7) The plate was washed three times with PBST, TMB Mix (1-step Ultra TMB-ELISA (Thermo Scientific):3% H₂O₂: Phosphate-Citrate buffer (Sigma)=15:0.15:14.85) was added thereto at 100 μL/well, and the mixture was reacted at room temperature for 10 minutes. Thereafter, 1 M H₂SO₄ was added thereto at 100 μL/well to stop the reaction. (8) Absorbance of the reaction solution at 450 nm was measured with a plate reader.
# Peptide 3 = molecular target: T2, Peptide 3; assay: solid phase ELISA; biotinylated peptide on plate, antibody 2 ug/ml
# Method: (§1) (1) The peptides shown in Table 2 were synthesized, and biotin was added to the N-terminal side. (2) The synthesized peptides were dissolved in 80% DMSO solution and further diluted to 1 μg/ml with PBST. (3) After washing an ELISA plate three times with PBST, a biotinylated peptide was added thereto at 100 μL/well, and the plate was allowed to stand at room temperature for 1 hour to immobilize the peptide. Thereafter, the plate was washed three times with PBST, and Buffer I′ (10 mM NaH₂PO₄.2H₂O, 149.7 mM NaCl, 2.5 mM EDTA 2Na, 0.10% BSA, pH 7.0) was added thereto at 200 μL/well to prepare a plate stored at 4° C. overnight. (4) The plate was washed three times with PBST, and an antibody diluted to 2 μg/ml was added thereto at 50 μL/well, followed by shaking at room temperature for 1 hour. (5) The plate was washed three times with PBST, and an Anti-Mouse IgG POD antibody diluted about 5000 fold with Buffer I′ (10 mM NaH₂PO₄.2H₂O, 149.7 mM NaCl, 2.5 mM EDTA 2Na, 0.10% BSA, pH 7.0) was added thereto at 50 μL/well, followed by shaking at room temperature for 1 hour. (6) The plate was washed three times with PBST, TMB Mix (1-step Ultra TMB-ELISA (Thermo Scientific):3% H₂O₂: Phosphate-Citrate buffer (Sigma)=15:0.15:14.85) was added thereto at 100 μL/well, and the mixture was reacted at room temperature for 10 minutes. Thereafter, 1 M H₂SO₄ was added thereto at 100 μL/well to stop the reaction. (7) Absorbance of the reaction solution at 450 nm was measured with a plate reader.
# Peptide 11 = molecular target: T3, Peptide 11; assay: as above
# Method: as §1
# Peptide 7 = molecular target: T4, Peptide 7; assay: as above
# Method: as §1
# Peptide 10 = molecular target: T5, Peptide 10; assay: as above
# Method: as §1
# Peptide 13 = molecular target: T6, Peptide 13; assay: as above
# Method: as §1
# Peptide 15 = molecular target: T7, Peptide 15; assay: as above
# Method: as §1
# Peptide 18 = molecular target: T8, Peptide 18; assay: as above
# Method: as §1
# Peptide 8 = Peptide 8 (human, biotin added to the N-terminal side); assay: as above
# Method: as §1
# Peptide 6 = Peptide 6 (human, biotin added to the N-terminal side); assay: as above
# Method: as §1
# Peptide 14 = molecular target: T9, Peptide 14; assay: as above
# Method: as §1
# Peptide 16 = molecular target: T10, Peptide 16; assay: as above
# Method: as §1
# Peptide 12 = molecular target: T11, Peptide 12; assay: as above
# Method: as §1
# Peptide 17 = molecular target: T12, Peptide 17; assay: as above
# Method: as §1
# Peptide 5 = molecular target: T13, Peptide 5; assay: as above
# Method: as §1
# Peptide 27 = molecular target: T14, Peptide 27; assay: as above
# Method: as §1
# Peptide 25 = molecular target: T15, Peptide 25; assay: as above
# Method: as §1
# Peptide 26 = molecular target: T16, Peptide 26; assay: as above
# Method: as §1
Abs450 (rfCK18 (239-396)),Abs450 (Peptide 3),Abs450 (Peptide 11),Abs450 (Peptide 7),Abs450 (Peptide 10),Abs450 (Peptide 13),Abs450 (Peptide 15),Abs450 (Peptide 18),Abs450 (Peptide 8),Abs450 (Peptide 6),Abs450 (Peptide 14),Abs450 (Peptide 16),Abs450 (Peptide 12),Abs450 (Peptide 17),Abs450 (Peptide 5),Abs450 (Peptide 27),Abs450 (Peptide 25),Abs450 (Peptide 26),Binder
0.525,0.04,0.01,0,0,0.01,0,0.02,-0.01,0.01,-0.01,0.04,0,1.55,-0.01,,,,"K18-328 antibody (antibody, V domains shown, Mouse monoclonal antibody from a hybridoma (immunogen full length rCK18)) VH: QVHLQQSAAELARPGASVKMSCKASGYTFTNYTIHWIKQRPGQGLEWIGYINPSSGYTDYNQNFKDKTTLTADKSSTTVYMQLSSLTSEDSAVYYCARQIPFAYWGQGTLVTVSA VL: not shown"
0.017,,,,,,,,,,,,,,,2.34,0.14,0.14,"K18-624 antibody (antibody, V domains shown, Mouse monoclonal antibody from a hybridoma (Balb/C mouse immunised with Peptide 1-KLH)) VH: DVQLVESGGGLVQPGGSRKLSCAASGFTFSSFGMHWVRQAPEKGLEWVAYISSGSTTIYYADTVKGRFTISRDNPKNTLFLQMTSLRSEDTAMYYCARRGMITTGAWFAYWGQGTLVTVSA VL: DILLTQSPAILSVSPGERVSFSCRASQRIGTSIHWYQQRTNGSPRLLIKYASESISGIPSRFSGSGSGTDFTLSINSVESEDIADYYCQQSYIWPFTFGSGTKLEIK"
